Each block holds one binder with its values, some of them ahead of it.
Experiments:
[1] = target: T1, Human KIR3DL3 protein (Sino Biological, 16055-H08H) (human, UniProt Q8N743 26-322); assay: ELISA, coated KIR3DL3, biotinylated protein detected with StrepTactin-HRP
T1 construct: Coated on the ELISA plate
Method: After the liquid was discarded, the plate was washed 3 times with a PBS buffer, 200 μl of PBS blocking solution containing 1% BSA was added, and the plate was incubated for 1 hour at room temperature. The blocking solution was discarded, and the plate was washed 3 times with a PBS buffer. […] The antibodies to be tested were subjected to 3-fold concentration dilution from 100 nM, with a total of 8 gradient concentrations. 100 μl of the diluted antibody was added to each well, and the plate was incubated at 4° C. overnight.

[2] = target: T2, human B7-H7 on the cell surface (human, UniProt Q9UM44 23-414); assay: flow cytometry, HCC827 cells
T2 construct: whole, on cells; also called hB7-H7; hu B7-H7
T2 sequence (looked up): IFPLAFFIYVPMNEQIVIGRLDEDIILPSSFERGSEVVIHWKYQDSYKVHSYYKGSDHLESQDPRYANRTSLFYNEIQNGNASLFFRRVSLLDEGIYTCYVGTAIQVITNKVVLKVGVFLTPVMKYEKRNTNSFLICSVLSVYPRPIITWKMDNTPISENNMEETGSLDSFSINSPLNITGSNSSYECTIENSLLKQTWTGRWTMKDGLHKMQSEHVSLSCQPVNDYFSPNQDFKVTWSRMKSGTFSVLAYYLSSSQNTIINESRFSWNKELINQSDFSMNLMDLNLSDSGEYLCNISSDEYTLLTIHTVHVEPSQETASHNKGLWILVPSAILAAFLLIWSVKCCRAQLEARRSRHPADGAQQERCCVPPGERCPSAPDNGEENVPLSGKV
Method: This example was intended to study the in vitro activity of H2L2 monoclonal antibodies against human B7-H7 in binding to human/cynomolgus monkey B7-H7. Since homologous molecules of B7-H7 were not present in mice, the detection was not performed. […] The cells were adjusted to a cell density of 1×10⁶ cells/mL, respectively. The cells were seeded in a 96-well V-bottom plate (Corning, #3894) at 100 μL/well, and the antibody to be tested at 2× final concentration with 3-fold concentration gradient dilution was then added at 100 μL/well. The cells were incubated at 4° C. for 2 hours in the dark. After the incubation, the cells were rinsed twice by adding pre-chilled PBS containing 2% BSA at 100 μl/well, and centrifuged at 500 g at 4° C. for 5 minutes, and the supernatant was discarded. […] The cells were washed twice by adding pre-chilled PBS containing 2% BSA at 100 μL/well, and centrifuged at 500 g at 4° C. for 5 minutes, and the supernatant was discarded. Finally, the cells were resuspended in pre-chilled PBS containing 2% BSA at 200 μL/well, and the fluorescence signal values were read using an ACEA Novocyte3000 flow cytometer.

[3] = target: T3, biotinylated human B7-H7 protein (Acro Biosystems, B77-H82F5) (human, UniProt Q9UM44 23-344, biotinylated); assay: flow cytometry, blocking of biotinylated human B7-H7 binding to HEK-293/CD28H cells
T3 construct: Bought soluble protein; also called biotin-B7H7 protein
T3 sequence (looked up): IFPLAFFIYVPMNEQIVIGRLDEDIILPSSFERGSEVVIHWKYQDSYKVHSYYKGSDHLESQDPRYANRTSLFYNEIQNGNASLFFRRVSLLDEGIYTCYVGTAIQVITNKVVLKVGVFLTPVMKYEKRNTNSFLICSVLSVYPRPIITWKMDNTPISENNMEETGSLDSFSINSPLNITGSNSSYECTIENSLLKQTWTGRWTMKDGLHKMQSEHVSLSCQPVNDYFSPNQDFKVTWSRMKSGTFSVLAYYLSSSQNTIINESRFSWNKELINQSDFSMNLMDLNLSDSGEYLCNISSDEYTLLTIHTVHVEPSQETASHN
Method: This example was intended to study the in vitro blocking activity of human anti-B7-H7 antibodies against the binding of human B7-H7 to its receptor CD28H. […] The cells were adjusted to a cell density of 1×10⁶ cells/mL. […] The cells were incubated at 4° C. for 1 hour in the dark. […] The cells were rinsed twice by adding pre-chilled PBS containing 2% BSA at 100 μL/well, and were centrifuged at 500 g at 4° C. for 5 minutes, and the supernatant was discarded. A fluorescent secondary antibody (PE Streptavidin, BD, Cat #: 554061, 1:200) was added at 100 μL/well, and the cells were incubated at 4° C. for 30 minutes in the dark. The cells were washed twice by adding pre-chilled PBS at 200 μL/well, and centrifuged at 500 g at 4° C. for 5 minutes, and the supernatant was discarded. Finally, the cells were resuspended in pre-chilled PBS at 200 μL/well, and the fluorescence signal values were read using an ACEA Novocyte3000 flow cytometer. IC50 was calculated.

[4] = target: T3, biotinylated human B7-H7 protein (Acro …); assay: flow cytometry, blocking of biotinylated human B7-H7 binding to CHO-K1/KIR3DL3 cells
Description: This example was intended to study the in vitro blocking activity of human anti-B7-H7 antibodies against the binding of human B7-H7 to its receptor KIR3DL3. A CHO-K1 cell (CHO-K1/KIR3DL3, Harbour BioMed US, Inc.) overexpressing human KIR3DL3 was used in experiments at the cellular level where human B7-H7/human KIR3DL3 binding was blocked. Briefly, the CHO-K1/KIR3DL3 cells were digested and resuspended in PBS containing 2% BSA. The cells were adjusted to a cell density of 1×10⁶ cells/mL. […] The cells were incubated at 4° C. for 1 hour in the dark. […] The cells were rinsed twice by adding pre-chilled PBS containing 2% BSA at 100 μL/well, and were centrifuged at 500 g at 4° C. for 5 minutes, and the supernatant was discarded. A fluorescent secondary antibody (PE Streptavidin, BD, Cat #: 554061, 1:200) was added at 100 μL/well, and the cells were incubated at 4° C. for 30 minutes in the dark. The cells were washed twice by adding pre-chilled PBS at 200 µL/well, and centrifuged at 500 g at 4° C. for 5 minutes, and the supernatant was discarded. Finally, the cells were resuspended in pre-chilled PBS at 200 μL/well, and the fluorescence signal values were read using an ACEA Novocyte3000 flow cytometer. IC50 was calculated.

[5] = target: T4, human B7-H7 recombinant protein (human, UniProt Q9UM44 23-344); assay: BLI (Octet), antibody captured on AHC sensor, human B7-H7 in solution, 1:1 global fit
T4 construct: also called human B7-H7 protein
T4 sequence (looked up): T3 sequence (looked up)
Method: The binding kinetics between antigen and antibody was analyzed using an Octet Red 96e (Fortebio) molecular interaction analyzer by biolayer interferometry (BLI) technology.
For determining the affinity of antibodies for antigens, the rotary speed of the sensor was set at 1000 rpm. AHC sensors (Fortebio, #18-5060) placed in one column were first equilibrated in a test buffer for 10 minutes, and then used to capture the anti-B7-H7 antibodies at a capture height of 0.7 nm; and after being equilibrated in the buffer for 120 s, the AHC sensors bound to human B7-H7 (concentrations: 50-3.125 nM and 0 nM) with 2-fold gradient dilution for 180 s and dissociated for 300 s. The AHC sensors were finally regenerated by immersing in a 10 mM glycine-hydrochloric acid solution with pH 1.5 to elute the protein bound to the sensors.
For data analysis using Octet Data Analysis software (Fortebio, version 11.0), 0 nM well was used as the reference well, reference subtraction was performed, “1:1 Global fitting” method was selected for data fitting, the kinetic parameters of the binding of the antigen to the antigen-binding protein were calculated, and the kₒₙ (1/Ms) value, kdis (1/s) value and KD (M) value were obtained.

[6] = target: T3, biotinylated human B7-H7 protein (Acro …); assay: BLI epitope competition on SA-captured biotinylated B7-H7; competitor (first antibody) PR003249
Method: (§1) Epitope competition experiments were performed on the anti-B7-H7 antibodies using the ForteBio Octet Red96e platform with the same experimental buffer as described above. […] After being equilibrated in a buffer for 120 s, the sensors were immersed in various antibodies diluted to 100 nM for 240 s, and the final signal of the antibody binding to B7-H7 was recorded as the 100% signal for that antibody. Second step, epitope competition experiment: B7-H7 was captured using SA sensors at a capture height of 0.25 nm. The sensors were immersed in a first antibody (concentration: 100 nM) for 240 s, then the SA sensors were immersed in a mixture of the first antibody and a second antibody (final concentration of both antibodies: 100 nM) for 240 s, and the difference in signals before and after immersing the sensors in the mixture of the two antibodies was recorded as the signal for that antibody as the second antibody. The inhibition rate was calculated by the following equation, […]

[7] = target: T3, biotinylated human B7-H7 protein (Acro …); assay: BLI epitope competition on SA-captured biotinylated B7-H7; competitor (first antibody) PR003251
Method: as §1

T1 sequence (Q8N743 26-322 limits assumed): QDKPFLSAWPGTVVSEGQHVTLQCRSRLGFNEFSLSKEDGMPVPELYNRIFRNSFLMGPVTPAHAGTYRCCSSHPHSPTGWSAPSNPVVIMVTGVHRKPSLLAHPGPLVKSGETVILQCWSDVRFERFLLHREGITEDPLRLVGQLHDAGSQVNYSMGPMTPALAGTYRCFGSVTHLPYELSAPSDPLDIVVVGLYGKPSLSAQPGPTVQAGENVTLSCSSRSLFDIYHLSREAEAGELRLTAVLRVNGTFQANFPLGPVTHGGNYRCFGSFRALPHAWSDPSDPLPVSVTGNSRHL

- binding result [1]: no binding (tested: 6 µg/ml)
B1: Biotin-B7H4 protein (Acro Biosystems, B74-H82E2) (ligand, UniProt Q7Z7D3 29-258, looked up)
chain: FGISGRHSITVTTVASAGNIGEDGILSCTFEPDIKLSDIVIQWLKEGVLGLVHEFKEGKDELSEQDEMFRGRTAVFADQVIVGNASLRLKNVQLTDAGTYKCYIITSKGKGNANLEYKTGAFSMPEVNVDYNASSETLRCEAPRWFPQPTVVWASQVDQGANFSEVSNTSFELNSENVTMKVVSVLYNVTINNTYSCMIENDIAKATGDIKVTESEIKRRSHLQLLNSKA
modifications: biotinylated
notes: also called negative control protein

- EC50 [2]: 2.55 nM
- Maximum MFI [2]: 25100 MFI
- IC50 [3]: 71.7 nM
- IC50 [4]: 10.4 nM
- Maximum inhibition rate (%) [4]: 96.7%
- Kd [5]: 26.3 nM
- koff [5]: 0.00205 s⁻¹
- kon [5]: 78100 M⁻¹ s⁻¹
- Competitive inhibition rate (%) [6]: 77%
- Competitive inhibition rate (%) [7]: 5.32%
B2: PR003181 (antibody, human IgG4 S228P, kappa)
heavy: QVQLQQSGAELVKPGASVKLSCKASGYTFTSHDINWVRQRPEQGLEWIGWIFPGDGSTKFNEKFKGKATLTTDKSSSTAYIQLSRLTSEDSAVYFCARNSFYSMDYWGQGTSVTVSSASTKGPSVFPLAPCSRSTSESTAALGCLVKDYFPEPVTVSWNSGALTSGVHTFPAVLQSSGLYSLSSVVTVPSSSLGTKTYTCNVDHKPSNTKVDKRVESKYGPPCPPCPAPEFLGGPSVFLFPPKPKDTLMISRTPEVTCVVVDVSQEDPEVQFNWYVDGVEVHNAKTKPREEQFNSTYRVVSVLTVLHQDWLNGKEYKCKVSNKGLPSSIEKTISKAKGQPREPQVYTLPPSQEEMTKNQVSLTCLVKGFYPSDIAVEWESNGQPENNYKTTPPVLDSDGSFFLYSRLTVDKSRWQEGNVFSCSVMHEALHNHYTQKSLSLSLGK
light: DIVMSQSPSSLAVSAGEKVTMSCKSSQSLLNSRTRKNQLAWYQQKPGQSPKLLIYWASTRESGVPDRFTGSGSGTDFTLTISSVQAEDLAVYYCKQSYNLRTFGGGTKLEIKRTVAAPSVFIFPPSDEQLKSGTASVVCLLNNFYPREAKVQWKVDNALQSGNSQESVTEQDSKDSTYSLSSTLTLSKADYEKHKVYACEVTHQGLSSPVTKSFNRGEC
notes: also called Control antibody 1; positive control
